Patent US20180362632A1 (published 2018)
Read-outs that look alike come from different tables or passages of the source. Blank lines part the entries; values can stand above or below the binder they belong to.

Tests used:
[1] = biological target: T1, recombinant human GM-CSF protein (human, UniProt P04141 18-144); assay: ELISA
[2] = biological target: T1, recombinant human GM-CSF protein; assay: ELISA; remark: listed apart in the source

T1 sequence (P04141 18-144): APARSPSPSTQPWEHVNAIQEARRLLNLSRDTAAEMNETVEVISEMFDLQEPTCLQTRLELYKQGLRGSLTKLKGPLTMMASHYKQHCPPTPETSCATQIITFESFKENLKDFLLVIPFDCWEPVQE

B5: Hu50C5-5 (antibody, V domains shown)
VH: EVQLVQSGAEVKKPGSSVKVSCKASGGTFSPYSIHWVRQAPGQGLEWMGYINPSTGYIEYNQHFKDRVTITADKSTSTAYMELRSLRSEDTAVYYCARGGDYEGYFDYWGQGTTVTVSS
VL: DIQMTQSPSSLSASVGDRVTITCRLNENIYSFLAWYQQKPGKSPKLLVYNAETLAEDVPSRFSGSGSGTQFTLTISSLQPEDFATYYCQQHYGTPYTFGGGTKVEIK
EC50 [2]: 0.534 nM

B6: Hu50C5-1 (antibody, V domains shown)
VH: EVQLVQSGAEVKKPGSSVKVSCKASGGTFSPYSIHWVRQAPGQGLEWMGYINPSTGYIEYNQHFKDRVTITADKSTSTAYMELRSLRSEDTAVYYCARGGDYEGYFDYWGQGTTVTVSS
VL: DIQMTQSPSSLSASVGDRVTITCRLNENIYSFLAWYQQKPGKAPKLLIYNAETLAEGVPSRFSGSGSGTDFTLTISSLQPEDFATYYCQQHYGTPYTFGGGTKVEIK
EC50 [2]: 2.75 nM

B7: Hu50C5-4 (antibody, V domains shown)
VH: EVQLVQSGAEVKKPGSSVKVSCKASGGTFSPYSIHWVRQAPGQGLEWMGYINPSTGYIEYNQHFKDRVTITADKSTSTAYMELRSLRSEDTAVYYCARGGDYEGYFDYWGQGTTVTVSS
VL: DIQMTQSPSSLSASVGDRVTITCRLNENIYSFLAWYQQKPGKAPKLLVYNAETLAEDVPSRFSGSGSGTQFTLTISSLQPEDFATYYCQQHYGTPYTFGGGTKVEIK
EC50 [2]: 1.18 nM

B9: Hu50C5-6 (antibody, V domains shown)
VH: EVQLVQSGAEVKKPGSSVKVSCKASGYIFSPYSIHWVRQAPGQGLEWMGYINPSTGYIEYNQHFKDRVTITADKSTSTAYMELRSLRSEDTAVYYCARGGDYEGYFDYWGQGTTVTVSS
VL: DIQMTQSPSSLSASVGDRVTITCRLNENIYSFLAWYQQKPGKAPKLLIYNAETLAEGVPSRFSGSGSGTDFTLTISSLQPEDFATYYCQQHYGTPYTFGGGTKVEIK
EC50 [2]: 0.345 nM

B12: Hu50C5-3 (antibody, V domains shown)
VH: EVQLVQSGAEVKKPGSSVKVSCKASGGTFSPYSIHWVRQAPGQGLEWMGYINPSTGYIEYNQHFKDRVTITADKSTSTAYMELRSLRSEDTAVYYCARGGDYEGYFDYWGQGTTVTVSS
VL: DIQMTQSPSSLSASVGDRVTITCRLNENIYSFLAWYQQKPGKAPKLLVYNAETLAEDVPSRFSGSGSGTDFTLTISSLQPEDFATYYCQQHYGTPYTFGGGTKVEIK
EC50 [2]: 1.85 nM

B14: Hu50C5-8 (antibody, V domains shown)
VH: EVQLVQSGAEVKKPGSSVKVSCKASGYIFSPYSIHWVRQAPGQGLEWMGYINPSTGYIEYNQHFKDRVTITADKSTSTAYMELRSLRSEDTAVYYCARGGDYEGYFDYWGQGTTVTVSS
VL: DIQMTQSPSSLSASVGDRVTITCRLNENIYSFLAWYQQKPGKAPKLLVYNAETLAEDVPSRFSGSGSGTDFTLTISSLQPEDFATYYCQQHYGTPYTFGGGTKVEIK
EC50 [2]: 0.438 nM

B15: Hu50C5-7 (antibody, V domains shown)
VH: EVQLVQSGAEVKKPGSSVKVSCKASGYIFSPYSIHWVRQAPGQGLEWMGYINPSTGYIEYNQHFKDRVTITADKSTSTAYMELRSLRSEDTAVYYCARGGDYEGYFDYWGQGTTVTVSS
VL: DIQMTQSPSSLSASVGDRVTITCRLNENIYSFLAWYQQKPGKAPKLLVYNAETLAEGVPSRFSGSGSGTDFTLTISSLQPEDFATYYCQQHYGTPYTFGGGTKVEIK
EC50 [2]: 0.844 nM

More lines, now with the values ahead:

EC50 [1]: 0.356 nM
B1: Hu50C5-23 (antibody, V domains shown)
VH: EVQLVQSGAEVKKPGSSVKVSCKASGYIFTPYSIHWVRQAPGQGLEWIGYINPSTGYIEYNQHFKDRTTLTADKSTSTAYMELRSLRSEDTAVYYCARGGDYEGYFDYWGQGTTVTVSS
VL: DIQMTQSPSSLSASVGDRVTITCRLNENIYSFLAWYQQKPGKAPKLLVYNAETLAEDVPSRFSGSGSGTDFTLTISSLQPEDFATYYCQQHYGTPYTFGGGTKVEIK

EC50 [1]: 2.72 nM
B2: Hu50C5-15 (antibody, V domains shown)
VH: EVQLVQSGAEVKKPGSSVKVSCKASGYIFSPYSIHWVRQAPGQGLEWIGYINPSTGYIEYNQHFKDRVTITADKSTSTAYMELRSLRSEDTAVYYCARGGDYEGYFDYWGQGTTVTVSS
VL: DIQMTQSPSSLSASVGDRVTITCRLNENIYSFLAWYQQKPGKSPKLLVYNAETLAEDVPSRFSGSGSGTQFTLTISSLQPEDFATYYCQQHYGTPYTFGGGTKVEIK

EC50 [1]: 0.889 nM
B3: Hu50C5-22 (antibody, V domains shown)
VH: EVQLVQSGAEVKKPGSSVKVSCKASGYIFTPYSIHWVRQAPGQGLEWIGYINPSTGYIEYNQHFKDRTTLTADKSTSTAYMELRSLRSEDTAVYYCARGGDYEGYFDYWGQGTTVTVSS
VL: DIQMTQSPSSLSASVGDRVTITCRLNENIYSFLAWYQQKPGKAPKLLVYNAETLAEGVPSRFSGSGSGTDFTLTISSLQPEDFATYYCQQHYGTPYTFGGGTKVEIK

EC50 [1]: 0.272 nM
B4: Hu50C5-19 (antibody, V domains shown)
VH: EVQLVQSGAEVKKPGSSVKVSCKASGYIFSPYSIHWVRQAPGQGLEWIGYINPSTGYIEYNQHFKDRTTLTADKSTSTAYMELRSLRSEDTAVYYCARGGDYEGYFDYWGQGTTVTVSS
VL: DIQMTQSPSSLSASVGDRVTITCRLNENIYSFLAWYQQKPGKAPKLLVYNAETLAEDVPSRFSGSGSGTQFTLTISSLQPEDFATYYCQQHYGTPYTFGGGTKVEIK

EC50 [2]: 1.94 nM
B8: Hu50C5-14 (antibody, V domains shown)
VH: EVQLVQSGAEVKKPGSSVKVSCKASGYIFSPYSIHWVRQAPGQGLEWIGYINPSTGYIEYNQHFKDRVTITADKSTSTAYMELRSLRSEDTAVYYCARGGDYEGYFDYWGQGTTVTVSS
VL: DIQMTQSPSSLSASVGDRVTITCRLNENIYSFLAWYQQKPGKAPKLLVYNAETLAEDVPSRFSGSGSGTQFTLTISSLQPEDFATYYCQQHYGTPYTFGGGTKVEIK

EC50 [2]: 0.568 nM
B10: Hu50C5-9 (antibody, V domains shown)
VH: EVQLVQSGAEVKKPGSSVKVSCKASGYIFSPYSIHWVRQAPGQGLEWMGYINPSTGYIEYNQHFKDRVTITADKSTSTAYMELRSLRSEDTAVYYCARGGDYEGYFDYWGQGTTVTVSS
VL: DIQMTQSPSSLSASVGDRVTITCRLNENIYSFLAWYQQKPGKAPKLLVYNAETLAEDVPSRFSGSGSGTQFTLTISSLQPEDFATYYCQQHYGTPYTFGGGTKVEIK

EC50 [2]: 3.24 nM
B11: Hu50C5-12 (antibody, V domains shown)
VH: EVQLVQSGAEVKKPGSSVKVSCKASGYIFSPYSIHWVRQAPGQGLEWIGYINPSTGYIEYNQHFKDRVTITADKSTSTAYMELRSLRSEDTAVYYCARGGDYEGYFDYWGQGTTVTVSS
VL: DIQMTQSPSSLSASVGDRVTITCRLNENIYSFLAWYQQKPGKAPKLLVYNAETLAEGVPSRFSGSGSGTDFTLTISSLQPEDFATYYCQQHYGTPYTFGGGTKVEIK

EC50 [2]: 1.03 nM
B13: Hu50C5-10 (antibody, V domains shown)
VH: EVQLVQSGAEVKKPGSSVKVSCKASGYIFSPYSIHWVRQAPGQGLEWMGYINPSTGYIEYNQHFKDRVTITADKSTSTAYMELRSLRSEDTAVYYCARGGDYEGYFDYWGQGTTVTVSS
VL: DIQMTQSPSSLSASVGDRVTITCRLNENIYSFLAWYQQKPGKSPKLLVYNAETLAEDVPSRFSGSGSGTQFTLTISSLQPEDFATYYCQQHYGTPYTFGGGTKVEIK

EC50 [2]: 0.462 nM
B16: Hu50C5-11 (antibody, V domains shown)
VH: EVQLVQSGAEVKKPGSSVKVSCKASGYIFSPYSIHWVRQAPGQGLEWIGYINPSTGYIEYNQHFKDRVTITADKSTSTAYMELRSLRSEDTAVYYCARGGDYEGYFDYWGQGTTVTVSS
VL: DIQMTQSPSSLSASVGDRVTITCRLNENIYSFLAWYQQKPGKAPKLLIYNAETLAEGVPSRFSGSGSGTDFTLTISSLQPEDFATYYCQQHYGTPYTFGGGTKVEIK
